In general, Kd refers to the free concentration of one partner at which half of the binding sites on the other are occupied at equilibrium, for simple one-to-one binding.

For one assay, the target named is T1, REV7^WT (human, UniProt Q9UI95 1-211).
T1 construct: REV7 (MAD2L2), human, HORMA domain protein; 211 residues printed; wild type; also called WT-REV7; MAD2L2; source: E. coli LOBSTR, purified (metal chelating column, tag cleavage, SEC)
Description: SPR; SHLD3^1-62 or REV3^1871-2014 immobilised on an SCR HC30M chip by EDC-NHS coupling; REV7^WT or REV7^R124A injected in two-fold dilutions; buffer B with 0.05% Tween 20; KD estimated from plateau values at the end of the dissociation phase. The conditions noted are these: both partners purified.

Assay [1] deals with T2, REV7^R124A (human, UniProt Q9UI95 1-211, R124A).
T2 construct: REV7 (MAD2L2), human; 211 residues printed; R124A; also called R124A-REV7; source: E. coli LOBSTR, purified (metal chelating column, tag cleavage, SEC)
The description is as above. The conditions noted are these: both partners purified.
T2 sequence (Q9UI95 whole entry R124A): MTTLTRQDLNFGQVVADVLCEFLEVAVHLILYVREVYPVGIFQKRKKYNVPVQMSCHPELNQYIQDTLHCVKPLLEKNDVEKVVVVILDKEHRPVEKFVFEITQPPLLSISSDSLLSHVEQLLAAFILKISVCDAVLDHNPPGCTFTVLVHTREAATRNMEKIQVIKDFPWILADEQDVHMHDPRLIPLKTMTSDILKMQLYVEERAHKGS

For assay [2], the target named is REV7^R124A (human, UniProt Q9UI95 1-211, R124A). Nature of the assay: SPR. On the technique in general: In SPR one partner is held on a chip, and binding of the other changes the refractive index at the surface.
The next assay has as its target T3, MBP-REV7^WT (human, UniProt Q9UI95 1-211).
T3 construct: REV7 (MAD2L2), human; 211 residues printed; wild type; source: E. coli LOBSTR, purified; not shown: hexahistidine-MBP, N-terminal, kept
Nature of the assay: pull-down; MBP pull-down of GST-SHLD3^1-83 with MBP-REV7^WT or MBP-REV7^core. The following applies: both partners purified.

T1 sequence (Q9UI95 whole entry, the tested form may be a part): as the sequence (Q9UI95 whole entry R124A) above, with A124R counted along it
T3 sequence (Q9UI95 whole entry): as the sequence (Q9UI95 whole entry R124A) above, with A124R counted along it

B1: REV3^1871-2014 (domain or fragment, human, UniProt O60673 1871-2014, looked up)
chain: TPRTANILKPLMSPPSREEIMATLLDHDLSETIYQEPFCSNPSDVPEKPREIGGRLLMVETRLANDLAEFEGDFSLEGLRLWKTAFSAMTQNPRPGSPLRSGQGVVNKGSSNSPKMVEDKKIVIMPCKCAPSRQLVQVWLQAKE
notes: REV3, human, residues 1871-2014 (holds RBM1 1875-1896 and RBM2 1991-2012); The general protocol cleaves the tag; source: E. coli LOBSTR, purified
With B1, in the assay with REV7^WT, the binding result was “binds”.

B2: SHLD3^1-62 (domain or fragment, human, UniProt Q6ZNX1 1-62, looked up)
chain: MTTEVILHYRPCESDPTQLPKIAEKAIQDFPTRPLSRFIPWFPYDGSKLPLRPKRSPPVISE
notes: SHLD3, human, residues 1-62; The general protocol cleaves the tag; also called SHLD3^RBM; source: E. coli LOBSTR, purified
B2: the binding result with REV7^R124A [1] is given as “binds”. Further, the Kd with REV7^WT is roughly 38 nM; in the assay with REV7^R124A [2], roughly 67 nM.

B3: GST-SHLD3^1-83 (domain or fragment, human, UniProt Q6ZNX1 1-83, looked up)
chain: MTTEVILHYRPCESDPTQLPKIAEKAIQDFPTRPLSRFIPWFPYDGSKLPLRPKRSPPVISEEAAEDVKQYLTISEHDAKSHS
notes: SHLD3, human, residues 1-83; also called SHLD3^RBM; source: E. coli LOBSTR, purified; not shown: GST, N-terminal, kept
B3: the binding result with MBP-REV7^WT is recorded as “binds”.

The values are drawn from paper doi:10.1101/2022.06.09.495453, “Molecular insights into human Shieldin complex assembly and recruitment to DSBs” (bioRxiv, 2022).
